In US9284543B2, “Neutral active soluble truncated PH20 polypeptides and uses thereof” (Halozyme, Inc., priority 2008, dated 2016):

Assays:
CHO-S cells = assay: Western blot analysis of PH20 expression in media and cells after transient expression; type: cell-based, Chinese Hamster; details: media versus cells
Method in brief: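 PH20 expression and solubility were judged by anti-PH20 Western blot of non-reduced media and cell fractions, with expression shown by a ~66 kDa band. Samples came from CHO-S cells transiently transfected (GeneJuice) with mutant PH20-HZ24 DNA and cultured 48-72 h. GPI-anchored mutants were cleaved with PI-PLC to release soluble protein.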

[1] = Microtiter hyaluronidase activity assay with biotinylated-hyaluronic acid; type: biochemical; details: Table 6, 72 hour post transfection supernatant

Molecule	pH 5.5 Activity [1] [Units/ml]	pH 7.4 Activity [1] [Units/ml]	Expressed in Media (CHO-S cells)
SPAM1-METE: C-terminally truncated human PH20, precursor 476 aa (SEQ ID NO:24), mature 441 aa (SEQ ID NO:76) (protein, listed as Homo sapiens, HuPH20 precursor 1-476; Mature HuPH20 36-476) chain 1: MGVLKFKHIFFRSFVKSSGVSQIVFTFLLIPCCLTLNFRAPPVIPNVPFLWAWNAPSEFCLGKFDEPLDMSLFSFIGSPRINATGQGVTIFYVDRLGYYPYIDSITGVTVNGGIPQKISLQDHLDKAKKDITFYMPVDNLGMAVIDWEEWRPTWARNWKPKDVYKNRSIELVQQQNVQLSLTEATEKAKQEFEKAGKDFLVETIKLGKLLRPNHLWGYYLFPDCYNHHYKKPGYNGSCFNVEIKRNDDLSWLWNESTALYPSIYLNTQQSPVAATLYVRNRVREAIRVSKIPDAKSPLPVFAYTRIVFTDQVLKFLSQDELVYTFGETVALGASGIVIWGTLSIMRSMKSCLLLDNYMETILNPYIINVTLAAKMCSQVLCQEQGVCIRKNWNSSDYLHLNPDNFAIQLEKGGKFTVRGKPTLEDLEQFSEKFYCSCYSTLSCKEKADVKDTDAVDVCIADGVCIDAFLKPPMETE chain 2: LNFRAPPVIPNVPFLWAWNAPSEFCLGKFDEPLDMSLFSFIGSPRINATGQGVTIFYVDRLGYYPYIDSITGVTVNGGIPQKISLQDHLDKAKKDITFYMPVDNLGMAVIDWEEWRPTWARNWKPKDVYKNRSIELVQQQNVQLSLTEATEKAKQEFEKAGKDFLVETIKLGKLLRPNHLWGYYLFPDCYNHHYKKPGYNGSCFNVEIKRNDDLSWLWNESTALYPSIYLNTQQSPVAATLYVRNRVREAIRVSKIPDAKSPLPVFAYTRIVFTDQVLKFLSQDELVYTFGETVALGASGIVIWGTLSIMRSMKSCLLLDNYMETILNPYIINVTLAAKMCSQVLCQEQGVCIRKNWNSSDYLHLNPDNFAIQLEKGGKFTVRGKPTLEDLEQFSEKFYCSCYSTLSCKEKADVKDTDAVDVCIADGVCIDAFLKPPMETE	1.278	1.332	YES
SPAM1-LKPP: C-terminally truncated human PH20, precursor 472 aa (SEQ ID NO:28), mature 437 aa (SEQ ID NO:80) (protein, listed as Homo sapiens, HuPH20 precursor 1-472; Mature HuPH20 36-472) chain 1: MGVLKFKHIFFRSFVKSSGVSQIVFTFLLIPCCLTLNFRAPPVIPNVPFLWAWNAPSEFCLGKFDEPLDMSLFSFIGSPRINATGQGVTIFYVDRLGYYPYIDSITGVTVNGGIPQKISLQDHLDKAKKDITFYMPVDNLGMAVIDWEEWRPTWARNWKPKDVYKNRSIELVQQQNVQLSLTEATEKAKQEFEKAGKDFLVETIKLGKLLRPNHLWGYYLFPDCYNHHYKKPGYNGSCFNVEIKRNDDLSWLWNESTALYPSIYLNTQQSPVAATLYVRNRVREAIRVSKIPDAKSPLPVFAYTRIVFTDQVLKFLSQDELVYTFGETVALGASGIVIWGTLSIMRSMKSCLLLDNYMETILNPYIINVTLAAKMCSQVLCQEQGVCIRKNWNSSDYLHLNPDNFAIQLEKGGKFTVRGKPTLEDLEQFSEKFYCSCYSTLSCKEKADVKDTDAVDVCIADGVCIDAFLKPP chain 2: LNFRAPPVIPNVPFLWAWNAPSEFCLGKFDEPLDMSLFSFIGSPRINATGQGVTIFYVDRLGYYPYIDSITGVTVNGGIPQKISLQDHLDKAKKDITFYMPVDNLGMAVIDWEEWRPTWARNWKPKDVYKNRSIELVQQQNVQLSLTEATEKAKQEFEKAGKDFLVETIKLGKLLRPNHLWGYYLFPDCYNHHYKKPGYNGSCFNVEIKRNDDLSWLWNESTALYPSIYLNTQQSPVAATLYVRNRVREAIRVSKIPDAKSPLPVFAYTRIVFTDQVLKFLSQDELVYTFGETVALGASGIVIWGTLSIMRSMKSCLLLDNYMETILNPYIINVTLAAKMCSQVLCQEQGVCIRKNWNSSDYLHLNPDNFAIQLEKGGKFTVRGKPTLEDLEQFSEKFYCSCYSTLSCKEKADVKDTDAVDVCIADGVCIDAFLKPP	0.9	0.5445	YES
SPAM1-KPPM: C-terminally truncated human PH20, precursor 473 aa (SEQ ID NO:27), mature 438 aa (SEQ ID NO:79) (protein, listed as Homo sapiens, HuPH20 precursor 1-473; Mature HuPH20 36-473) chain 1: MGVLKFKHIFFRSFVKSSGVSQIVFTFLLIPCCLTLNFRAPPVIPNVPFLWAWNAPSEFCLGKFDEPLDMSLFSFIGSPRINATGQGVTIFYVDRLGYYPYIDSITGVTVNGGIPQKISLQDHLDKAKKDITFYMPVDNLGMAVIDWEEWRPTWARNWKPKDVYKNRSIELVQQQNVQLSLTEATEKAKQEFEKAGKDFLVETIKLGKLLRPNHLWGYYLFPDCYNHHYKKPGYNGSCFNVEIKRNDDLSWLWNESTALYPSIYLNTQQSPVAATLYVRNRVREAIRVSKIPDAKSPLPVFAYTRIVFTDQVLKFLSQDELVYTFGETVALGASGIVIWGTLSIMRSMKSCLLLDNYMETILNPYIINVTLAAKMCSQVLCQEQGVCIRKNWNSSDYLHLNPDNFAIQLEKGGKFTVRGKPTLEDLEQFSEKFYCSCYSTLSCKEKADVKDTDAVDVCIADGVCIDAFLKPPM chain 2: LNFRAPPVIPNVPFLWAWNAPSEFCLGKFDEPLDMSLFSFIGSPRINATGQGVTIFYVDRLGYYPYIDSITGVTVNGGIPQKISLQDHLDKAKKDITFYMPVDNLGMAVIDWEEWRPTWARNWKPKDVYKNRSIELVQQQNVQLSLTEATEKAKQEFEKAGKDFLVETIKLGKLLRPNHLWGYYLFPDCYNHHYKKPGYNGSCFNVEIKRNDDLSWLWNESTALYPSIYLNTQQSPVAATLYVRNRVREAIRVSKIPDAKSPLPVFAYTRIVFTDQVLKFLSQDELVYTFGETVALGASGIVIWGTLSIMRSMKSCLLLDNYMETILNPYIINVTLAAKMCSQVLCQEQGVCIRKNWNSSDYLHLNPDNFAIQLEKGGKFTVRGKPTLEDLEQFSEKFYCSCYSTLSCKEKADVKDTDAVDVCIADGVCIDAFLKPPM	0.9157	0.8595	YES

The next lines start with results.

pH 5.5 Activity [1] [Units/ml]	pH 7.4 Activity [1] [Units/ml]	Molecule	Expressed in Media (CHO-S cells)
2.0925	2.223	SPAM1-PMET: C-terminally truncated human PH20, precursor 475 aa (SEQ ID NO:25), mature 440 aa (SEQ ID NO:77) (protein, listed as Homo sapiens, HuPH20 precursor 1-475; Mature HuPH20 36-475) chain 1: MGVLKFKHIFFRSFVKSSGVSQIVFTFLLIPCCLTLNFRAPPVIPNVPFLWAWNAPSEFCLGKFDEPLDMSLFSFIGSPRINATGQGVTIFYVDRLGYYPYIDSITGVTVNGGIPQKISLQDHLDKAKKDITFYMPVDNLGMAVIDWEEWRPTWARNWKPKDVYKNRSIELVQQQNVQLSLTEATEKAKQEFEKAGKDFLVETIKLGKLLRPNHLWGYYLFPDCYNHHYKKPGYNGSCFNVEIKRNDDLSWLWNESTALYPSIYLNTQQSPVAATLYVRNRVREAIRVSKIPDAKSPLPVFAYTRIVFTDQVLKFLSQDELVYTFGETVALGASGIVIWGTLSIMRSMKSCLLLDNYMETILNPYIINVTLAAKMCSQVLCQEQGVCIRKNWNSSDYLHLNPDNFAIQLEKGGKFTVRGKPTLEDLEQFSEKFYCSCYSTLSCKEKADVKDTDAVDVCIADGVCIDAFLKPPMET chain 2: LNFRAPPVIPNVPFLWAWNAPSEFCLGKFDEPLDMSLFSFIGSPRINATGQGVTIFYVDRLGYYPYIDSITGVTVNGGIPQKISLQDHLDKAKKDITFYMPVDNLGMAVIDWEEWRPTWARNWKPKDVYKNRSIELVQQQNVQLSLTEATEKAKQEFEKAGKDFLVETIKLGKLLRPNHLWGYYLFPDCYNHHYKKPGYNGSCFNVEIKRNDDLSWLWNESTALYPSIYLNTQQSPVAATLYVRNRVREAIRVSKIPDAKSPLPVFAYTRIVFTDQVLKFLSQDELVYTFGETVALGASGIVIWGTLSIMRSMKSCLLLDNYMETILNPYIINVTLAAKMCSQVLCQEQGVCIRKNWNSSDYLHLNPDNFAIQLEKGGKFTVRGKPTLEDLEQFSEKFYCSCYSTLSCKEKADVKDTDAVDVCIADGVCIDAFLKPPMET	YES
1.341	1.2105	SPAM1-PPME: C-terminally truncated human PH20, precursor 474 aa (SEQ ID NO:26), mature 439 aa (SEQ ID NO:78) (protein, listed as Homo sapiens, HuPH20 precursor 1-474; Mature HuPH20 36-474) chain 1: MGVLKFKHIFFRSFVKSSGVSQIVFTFLLIPCCLTLNFRAPPVIPNVPFLWAWNAPSEFCLGKFDEPLDMSLFSFIGSPRINATGQGVTIFYVDRLGYYPYIDSITGVTVNGGIPQKISLQDHLDKAKKDITFYMPVDNLGMAVIDWEEWRPTWARNWKPKDVYKNRSIELVQQQNVQLSLTEATEKAKQEFEKAGKDFLVETIKLGKLLRPNHLWGYYLFPDCYNHHYKKPGYNGSCFNVEIKRNDDLSWLWNESTALYPSIYLNTQQSPVAATLYVRNRVREAIRVSKIPDAKSPLPVFAYTRIVFTDQVLKFLSQDELVYTFGETVALGASGIVIWGTLSIMRSMKSCLLLDNYMETILNPYIINVTLAAKMCSQVLCQEQGVCIRKNWNSSDYLHLNPDNFAIQLEKGGKFTVRGKPTLEDLEQFSEKFYCSCYSTLSCKEKADVKDTDAVDVCIADGVCIDAFLKPPME chain 2: LNFRAPPVIPNVPFLWAWNAPSEFCLGKFDEPLDMSLFSFIGSPRINATGQGVTIFYVDRLGYYPYIDSITGVTVNGGIPQKISLQDHLDKAKKDITFYMPVDNLGMAVIDWEEWRPTWARNWKPKDVYKNRSIELVQQQNVQLSLTEATEKAKQEFEKAGKDFLVETIKLGKLLRPNHLWGYYLFPDCYNHHYKKPGYNGSCFNVEIKRNDDLSWLWNESTALYPSIYLNTQQSPVAATLYVRNRVREAIRVSKIPDAKSPLPVFAYTRIVFTDQVLKFLSQDELVYTFGETVALGASGIVIWGTLSIMRSMKSCLLLDNYMETILNPYIINVTLAAKMCSQVLCQEQGVCIRKNWNSSDYLHLNPDNFAIQLEKGGKFTVRGKPTLEDLEQFSEKFYCSCYSTLSCKEKADVKDTDAVDVCIADGVCIDAFLKPPME	YES
